B1: Phytochrome B (Arabidopsis thaliana (Mouse-ear cress)), P14713 (parent)
chain: MVSGVGGSGGGRGGGRGGEEEPSSSHTPNNRRGGEQAQSSGTKSLRPRSNTESMSKAIQQYTVDARLHAVFEQSGESGKSFDYSQSLKTTTYGSSVPEQQITAYLSRIQRGGYIQPFGCMIAVDESSFRIIGYSENAREMLGIMPQSVPTLEKPEILAMGTDVRSLFTSSSSILLERAFVAREITLLNPVWIHSKNTGKPFYAILHRIDVGVVIDLEPARTEDPALSIAGAVQSQKLAVRAISQLQALPGGDIKLLCDTVVESVRDLTGYDRVMVYKFHEDEHGEVVAESKRDDLEPYIGLHYPATDIPQASRFLFKQNRVRMIVDCNATPVLVVQDDRLTQSMCLVGSTLRAPHGCHSQYMANMGSIASLAMAVIINGNEDDGSNVASGRSSMRLWGLVVCHHTSSRCIPFPLRYACEFLMQAFGLQLNMELQLALQMSEKRVLRTQTLLCDMLLRDSPAGIVTQSPSIMDLVKCDGAAFLYHGKYYPLGVAPSEVQIKDVVEWLLANHADSTGLSTDSLGDAGYPGAAALGDAVCGMAVAYITKRDFLFWFRSHTAKEIKWGGAKHHPEDKDDGQRMHPRSSFQAFLEVVKSRSQPWETAEMDAIHSLQLILRDSFKESEAAMNSKVVDGVVQPCRDMAGEQGIDELGAVAREMVRLIETATVPIFAVDAGGCINGWNAKIAELTGLSVEEAMGKSLVSDLIYKENEATVNKLLSRALRGDEEKNVEVKLKTFSPELQGKAVFVVVNACSSKDYLNNIVGVCFVGQDVTSQKIVMDKFINIQGDYKAIVHSPNPLIPPIFAADENTCCLEWNMAMEKLTGWSRSEVIGKMIVGEVFGSCCMLKGPDALTKFMIVLHNAIGGQDTDKFPFPFFDRNGKFVQALLTANKRVSLEGKVIGAFCFLQIPSPELQQALAVQRRQDTECFTKAKELAYICQVIKNPLSGMRFANSLLEATDLNEDQKQLLETSVSCEKQISRIVGDMDLESIEDGSFVLKREEFFLGSVINAIVSQAMFLLRDRGLQLIRDIPEEIKSIEVFGDQIRIQQLLAEFLLSIIRYAPSQEWVEIHLSQLSKQMADGFAAIRTEFRMACPGEGLPPELVRDMFHSSRWTSPEGLGLSVCRKILKLMNGEVQYIRESERSYFLIILELPVPRKRPLSTASGSGDMMLMMPY
partner: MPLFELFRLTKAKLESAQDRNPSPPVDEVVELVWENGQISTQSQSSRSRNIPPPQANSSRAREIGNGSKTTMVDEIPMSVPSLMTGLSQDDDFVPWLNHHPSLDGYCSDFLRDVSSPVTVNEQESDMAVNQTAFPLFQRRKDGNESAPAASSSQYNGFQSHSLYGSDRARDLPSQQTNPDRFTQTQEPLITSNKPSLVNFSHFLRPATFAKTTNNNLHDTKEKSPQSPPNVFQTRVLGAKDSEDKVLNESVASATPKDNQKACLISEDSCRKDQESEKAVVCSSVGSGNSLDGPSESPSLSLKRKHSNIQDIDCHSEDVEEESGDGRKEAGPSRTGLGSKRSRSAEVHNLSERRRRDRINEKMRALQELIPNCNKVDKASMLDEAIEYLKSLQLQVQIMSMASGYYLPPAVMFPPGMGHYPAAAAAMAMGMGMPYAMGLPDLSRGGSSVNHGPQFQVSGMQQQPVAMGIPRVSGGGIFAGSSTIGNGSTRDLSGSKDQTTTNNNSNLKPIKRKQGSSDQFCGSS

Variants of: B1
Conditions: with pif3_arath PIF3, O80536

Variant | effect of a mutation on the interaction
E812K | decreasing interaction
G767R | decreasing interaction
A750V | decreasing interaction
